Test results: the supplement of paper PMC12764529
± gives the half width of the 95% confidence interval.

Legend:
[1] = folding stability dG unfold from chymotrypsin proteolysis; higher = more stable
Method in brief: (§1)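 Unfolding free energy was derived, per protease or combined, against a sequence-predicted unfolded-state K50 and a shared folded-state K50, starting from K50 inferred by Bayesian fitting of sequencing counts. Digestion with trypsin and chymotrypsin was carried out on designed mini-proteins under 80 residues without cysteine in a PA-tagged cDNA display construct. Only designs with AlphaFold2 dimer inter-PAE above 15 were kept.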

[2] = folding stability dG unfold from trypsin proteolysis; higher = more stable
Method in brief: as §1

[3] = folding stability dG unfold (combined trypsin and chymotrypsin); higher = more stable
Method in brief: as §1

Sequence	folding stability dG unfold [1]	folding stability dG unfold [2]	folding stability dG unfold [3]
SAGMGEAELAAARAANPDRPLVPVETYEIPLPPDVSLEEVEKELREKYPPGKVKVTADPATGTVTITISSAG [r5_694_JUSTAS]	0.969 ± 0.04 kcal/mol	-0.221 ± 0.14 kcal/mol	0.684 ± 0.15 kcal/mol
SAGMGLVGRTKDGKWIPAADLTEEQLKDMELDLGEPLPPVVVKVEVEWKLSPEDKLEVKLKVEVFVEGSAGG [r19_232_TrMRF]	2.87 ± 0.07 kcal/mol	1.02 ± 0.15 kcal/mol	2.17 ± 0.2 kcal/mol
SAGMGPNEVKPIEIEFEVYETGEGEPYLVGKAIAKLYVDPVEGTVRLEIKDPEKPEPFITFEFPVEEISAGG [r19_413_TrMRF]	2.22 ± 0.037 kcal/mol	1.38 ± 0.039 kcal/mol	1.94 ± 0.065 kcal/mol
SAGMGVSTFPVEIVTKPDDITEEELKKRAIERLKKLFPGVKLKEVKFDIPVRELPGDEIVITMNITVNVSAG [r14_145_JUSTAS]	1.01 ± 0.035 kcal/mol	1.57 ± 0.068 kcal/mol	1.33 ± 0.056 kcal/mol
SAGMIDYIEIKPEKLPNGKYKVTITIYDSSTGTTTTYEKEMTPEEAKELAEKIKESNPDKPVKFGNLESAGG [r19_317_JUSTAS]	1.78 ± 0.089 kcal/mol	2.06 ± 0.093 kcal/mol	1.93 ± 0.2 kcal/mol
SAGMIEIKSEDGSTFRIEFDKETGEVKVEYDKNTGVVKVTLPDGKEVEIEIEGMSLEEVLKKLEELLKKSAG [r5_447_TrROS_Hall]	1.78 ± 0.13 kcal/mol	2.01 ± 0.19 kcal/mol	1.94 ± 0.22 kcal/mol
SAGMIEKLIREAFPAGAKSIRIEVRRLPDGSLLVRIDIHFDDPEVRRALADRIEELLGLPIPDLRVSPDSAG [r5_542_TrMRF]	3.067 ± 0.028 kcal/mol	2.26 ± 0.035 kcal/mol	2.81 ± 0.042 kcal/mol
SAGMIKITIITENGEEITIEIPENMSEEELKELAEKIAKEIAKKLNIPKVKIKKIKIEKIELTPEQIKKSAG [r5_377_TrROS_Hall]	1.97 ± 0.098 kcal/mol	0.887 ± 0.077 kcal/mol	1.89 ± 0.36 kcal/mol
SAGMIVTVLSKEVDPATGSTTTYSVSTDPETGETFLYTTTTTGDTVTTTRTVFFPGTGTTSTSTTTTSASAG [r5_150_JUSTAS]	3.019 ± 0.017 kcal/mol	2.17 ± 0.056 kcal/mol	2.73 ± 0.046 kcal/mol
SAGMKEGEVEKVEVEVEITIEVYNENGEKVKTFKAKVKVEVVRNENGELYVKAEIEFEDGTKFEFVVKLSAG [r5_580_TrROS_Hall]	3.71 ± 0.09 kcal/mol	2.96 ± 0.35 kcal/mol	3.81 ± 0.54 kcal/mol
SAGMKEKAIDALKEFFEEEGIKVKKIVIEEKPDGTYKITVYGENGKPIFEIEVPKDVKTSEELKKLIKKSAG [r5_352_TrMRF]	3.67 ± 0.12 kcal/mol	2.71 ± 0.52 kcal/mol	3.61 ± 0.3 kcal/mol
SAGMKETLKVKIKVKLSEEQREKLKKALEELGATVEVDEETGEVTVEVSAEQVEALKKIPGVEEIEVESAGG [r19_212_TrROS_Hall]	2.61 ± 0.24 kcal/mol	3.22 ± 0.18 kcal/mol	2.76 ± 0.14 kcal/mol
SAGMKIEEKDGYLVITFKTKEEAEEAAKKLKELFPDAEIVEIKVEKDENGNETVTIVIKLKNLSPEALKSAG [r5_857_TrROS_Hall]	2.04 ± 0.12 kcal/mol	1.53 ± 0.077 kcal/mol	1.85 ± 0.23 kcal/mol
SAGMKIEIEIVKVEVKEVNGKKVIKVEIKVKVSAEELGLSEEELKEKLEEEVEELARELAEKLNVEVVPSAG [r5_333_TrROS_Hall]	1.36 ± 0.1 kcal/mol	2.88 ± 0.36 kcal/mol	2.21 ± 0.51 kcal/mol
SAGMKIENAEITEIKVTVNEDGTVTVEMTVRLKNGYVVKVTMTFKNGKLEIKPEKVEVYKVKLPEEELSAGG [r19_84_TrROS_Hall]	2.28 ± 0.22 kcal/mol	1.68 ± 0.098 kcal/mol	2.09 ± 0.41 kcal/mol
SAGMKIEPTKDYVLITVNGPEKALETIKKLKELIPNPEILDIKPHPHPNGENPWTIIIPTKNIPPEVLFSAG [r5_857_TrMRF]	0.519 ± 0.14 kcal/mol	0.655 ± 0.042 kcal/mol	0.68 ± 0.15 kcal/mol
SAGMKIETIPEVDYVVIEIDAKSLEEAIETLKYLTEKLGLKKVIAVADPTSNKVIAIAEVGNPEALEKLSAG [r5_598_TrMRF]	1.56 ± 0.057 kcal/mol	2.33 ± 0.07 kcal/mol	1.96 ± 0.1 kcal/mol
SAGMKIEVKKKKDGKLEVEIEVKTKDGRTIRVKIYYDKKTKKFYIVEIEAESEEEKKKAEELLKKLLKSSAG [r5_266_TrROS_Hall]	3.62 ± 0.045 kcal/mol	2.83 ± 0.14 kcal/mol	3.42 ± 0.12 kcal/mol

Sequence	folding stability dG unfold [1]	folding stability dG unfold [2]	folding stability dG unfold [3]
SAGMKIKIKLENGEEIEIDKENPVIKIKNKETGEEVELVFDPENEDEIYIFNKKTKKLIAKFKITEIEPSAG [r5_761_TrROS_Hall]	3.21 ± 0.084 kcal/mol	1.87 ± 0.092 kcal/mol	2.62 ± 0.34 kcal/mol
SAGMKIKVLLVVKADPEELEKLEEILEKIKEESDIKKIEPLAYFPNTGIAVVLVEADPEAFEKILEAAGSAG [r5_193_TrMRF]	2.58 ± 0.03 kcal/mol	1.78 ± 0.032 kcal/mol	2.29 ± 0.095 kcal/mol
SAGMKIVVTLPDGWTATSDPSTGLITITDPKTGEPLLGKIPSSEPNKVTLYDPNNGKPLRELDIDEVEGSAG [r5_761_JUSTAS]	0.748 ± 0.023 kcal/mol	0.287 ± 0.026 kcal/mol	0.581 ± 0.053 kcal/mol
SAGMKKGDKFTVEFDLDPETRAEVEALLAAPGFAAEFDPSTGRLTLTLPSEIIDEVKKFPHIKKITKISAGG [r19_212_JUSTAS]	1.79 ± 0.044 kcal/mol	1.05 ± 0.068 kcal/mol	1.68 ± 0.083 kcal/mol
SAGMKKKLYSGEIKEIEEALEKGLSLEEIEEIFSKGANGSLELEEENKKIYIFALEDKKAFLLVEYNPESAG [r5_343_TrMRF]	1.46 ± 0.19 kcal/mol	0.441 ± 0.14 kcal/mol	1.1 ± 0.26 kcal/mol
SAGMKPGETITIENLPEGAIIYNKNGEKVEKVKEVKVTVEDGKITIEVKLEDGSTKTFTVPLEDLKIVPSAG [r5_850_TrROS_Hall]	3.05 ± 0.058 kcal/mol	1.61 ± 0.12 kcal/mol	2.31 ± 0.14 kcal/mol
SAGMKVIIGKNKIYVLVKLPNGEKKLFEIDIENIEKIKKIEIDIGKGYAKIGSKDNIPIYTKIKKVYNVSAG [r5_388_TrMRF]	2.82 ± 0.11 kcal/mol	2.2 ± 0.058 kcal/mol	2.6 ± 0.14 kcal/mol
SAGMKVIKVKGEEELEKALREEAEKKGLSEEEMKEFIEEAKKRTKIEKEGDEYYVTIEPEGKPVPGNKLSAG [r5_717_JUSTAS]	-0.879 ± 0.52 kcal/mol	1.04 ± 0.088 kcal/mol	0.474 ± 0.37 kcal/mol
SAGMKVLKFKSKEELLEAIDKSPEPVLVINKKTGKKEVLSKEELKKKLKPGDEIEIVLLKDLSPEELKKSAG [r5_677_TrROS_Hall]	1.78 ± 0.14 kcal/mol	1.05 ± 0.097 kcal/mol	1.4 ± 0.14 kcal/mol
SAGMKYRIVIENENGEKIEFEKLEDGTIKMTIEKDGKKEEITIKVPPGMTIEELLKKFPNAKIVKIEKVSAG [r5_259_TrROS_Hall]	3.45 ± 0.065 kcal/mol	2.78 ± 0.069 kcal/mol	3.23 ± 0.096 kcal/mol
SAGMLGEEAIKDVKLELKEAPENEELVFEDTFPVGDKIARIRIVLKLPKNGGYEIKDIPIEVMAPEEAESAG [r5_96_TrMRF]	-0.177 ± 0.42 kcal/mol	-0.469 ± 0.27 kcal/mol	< -1 kcal/mol
SAGMLPPEETVTLTLTFPASSPLSLEEILARTPDVEVLSLKREALPDDTVRLTITVRPDHVARVRAALASAG [r5_554_JUSTAS]	4.63 ± 0.06 kcal/mol	3.37 ± 0.054 kcal/mol	4.32 ± 0.09 kcal/mol
SAGMMKRIVVTARFPADEMTLDEFVELILAKLPGVKPVRVEILSVRPRPDGSYEVTVLLLVEAPPDVDASAG [r5_682_TrMRF]	4.216 ± 0.032 kcal/mol	4.38 ± 0.071 kcal/mol	4.23 ± 0.048 kcal/mol
SAGMMPLSHPEAREKAIEFAKKGYLVYVIEFENGESQVIVLESEEEIEELIKELPKPIKKIYVIPPLPESAG [r5_481_TrMRF]	3.054 ± 0.017 kcal/mol	2.11 ± 0.054 kcal/mol	2.79 ± 0.089 kcal/mol
SAGMMVVVELTVGFEPDEIEPEEIREAIEEHAAEVEIDPNPETDILPIRVIAEPGKIEAIVDALKEAGGSAG [r5_378_TrMRF]	0.0668 ± 0.19 kcal/mol	1.08 ± 0.069 kcal/mol	0.671 ± 0.22 kcal/mol
SAGMNKIYRLNEPVKNITFSSSELENLFKDPNIDRIAVFHPDKPAIIPFPDGKISGEFPPNITIVLFGSAGG [r19_152_TrMRF]	-0.0733 ± 0.5 kcal/mol	0.661 ± 0.15 kcal/mol	0.385 ± 0.2 kcal/mol
SAGMNPNNPNVKTTTVTYTFPLPATESVEEAVERLKAEAEAAGKPIKTVEVTVERTPEDTVVIKATFVSSAG [r5_65_JUSTAS]	1.71 ± 0.057 kcal/mol	1.34 ± 0.072 kcal/mol	1.59 ± 0.093 kcal/mol
SAGMPEPRVFEIPNEGSESDLRDAVRELAEELRPSGREVRLVVEVGGRPREYRLEEVDRFPPDFRVVLGSAG [r5_626_TrMRF]	0.324 ± 0.16 kcal/mol	-0.362 ± 0.25 kcal/mol	0.125 ± 0.12 kcal/mol
